Patent publication US20220315554A1, “COMPOUNDS COMPRISING A […] LIGAND AND USE THEREOF” (priority 2019, published 2022)
Bridge positions count the residues as written; N and C are the ends. * marks the point of attachment. tMeBn(DOTA-AET) = Cys-Cys bridge (thioethers) carrying DOTA-AET; tMeBn(DOTA-PP) = Cys-Cys bridge (thioethers) carrying DOTA-PP; Hexanoyl = CCCCCC(=O)*

T1: GR (h) (human (printed (h))), P04150
T1 chain: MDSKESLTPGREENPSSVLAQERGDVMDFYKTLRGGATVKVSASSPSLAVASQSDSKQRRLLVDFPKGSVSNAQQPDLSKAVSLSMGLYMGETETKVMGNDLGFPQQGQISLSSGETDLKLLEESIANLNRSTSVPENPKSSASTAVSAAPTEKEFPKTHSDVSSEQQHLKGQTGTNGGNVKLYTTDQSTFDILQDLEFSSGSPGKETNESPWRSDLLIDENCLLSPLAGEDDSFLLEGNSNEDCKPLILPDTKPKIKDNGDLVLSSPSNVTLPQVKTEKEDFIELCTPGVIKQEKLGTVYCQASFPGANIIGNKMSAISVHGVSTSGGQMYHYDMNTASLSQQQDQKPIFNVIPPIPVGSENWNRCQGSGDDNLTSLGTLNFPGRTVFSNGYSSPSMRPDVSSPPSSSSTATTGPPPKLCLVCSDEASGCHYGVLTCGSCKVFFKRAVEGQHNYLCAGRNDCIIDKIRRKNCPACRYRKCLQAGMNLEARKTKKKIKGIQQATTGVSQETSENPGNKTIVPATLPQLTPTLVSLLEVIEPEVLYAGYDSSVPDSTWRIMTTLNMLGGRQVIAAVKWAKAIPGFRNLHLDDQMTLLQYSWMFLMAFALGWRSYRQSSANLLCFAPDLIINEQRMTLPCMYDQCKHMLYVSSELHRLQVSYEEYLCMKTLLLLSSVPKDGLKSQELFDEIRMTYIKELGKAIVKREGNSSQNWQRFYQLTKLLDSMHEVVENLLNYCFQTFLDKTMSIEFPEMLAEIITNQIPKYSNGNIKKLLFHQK

T2: delta (DOP) (h) (human), P41143
T2 chain: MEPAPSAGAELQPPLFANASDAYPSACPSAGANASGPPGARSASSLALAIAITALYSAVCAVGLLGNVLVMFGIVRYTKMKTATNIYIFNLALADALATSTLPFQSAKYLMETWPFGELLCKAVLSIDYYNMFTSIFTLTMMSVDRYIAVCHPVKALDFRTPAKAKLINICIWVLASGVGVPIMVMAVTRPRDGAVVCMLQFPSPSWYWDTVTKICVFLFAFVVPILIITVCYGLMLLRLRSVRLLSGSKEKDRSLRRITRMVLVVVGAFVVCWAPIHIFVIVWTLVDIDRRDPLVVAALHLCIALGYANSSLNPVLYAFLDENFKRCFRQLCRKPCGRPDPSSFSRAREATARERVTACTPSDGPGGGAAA

T3: D2S (h) (human (printed (h))), P14416
T3 chain: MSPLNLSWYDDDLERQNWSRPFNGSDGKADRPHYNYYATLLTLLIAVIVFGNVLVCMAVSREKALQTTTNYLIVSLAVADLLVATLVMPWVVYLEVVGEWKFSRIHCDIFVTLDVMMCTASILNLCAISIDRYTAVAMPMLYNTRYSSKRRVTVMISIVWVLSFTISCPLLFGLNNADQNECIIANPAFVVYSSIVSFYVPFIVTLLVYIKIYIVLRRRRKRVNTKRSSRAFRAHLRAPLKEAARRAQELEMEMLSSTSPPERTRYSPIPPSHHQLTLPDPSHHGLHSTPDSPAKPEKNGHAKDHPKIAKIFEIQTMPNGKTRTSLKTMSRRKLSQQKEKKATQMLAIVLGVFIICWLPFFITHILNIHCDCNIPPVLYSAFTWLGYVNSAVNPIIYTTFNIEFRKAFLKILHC

T4: alpha 1A (h) (human (printed (h))), P35348
T4 chain: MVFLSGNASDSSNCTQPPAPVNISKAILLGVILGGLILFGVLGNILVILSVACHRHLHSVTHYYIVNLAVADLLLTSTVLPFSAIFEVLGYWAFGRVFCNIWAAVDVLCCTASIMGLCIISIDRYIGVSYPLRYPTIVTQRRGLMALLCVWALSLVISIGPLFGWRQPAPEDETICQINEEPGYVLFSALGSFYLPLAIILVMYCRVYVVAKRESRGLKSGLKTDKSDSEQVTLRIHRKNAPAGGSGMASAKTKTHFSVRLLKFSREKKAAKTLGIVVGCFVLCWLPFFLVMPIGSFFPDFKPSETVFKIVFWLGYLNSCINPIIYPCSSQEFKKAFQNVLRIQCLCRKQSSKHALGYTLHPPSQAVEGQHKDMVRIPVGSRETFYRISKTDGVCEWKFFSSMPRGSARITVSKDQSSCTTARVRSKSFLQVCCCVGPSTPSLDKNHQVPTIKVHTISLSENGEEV

T5: M1 (h) (human (printed (h))), P11229
T5 chain: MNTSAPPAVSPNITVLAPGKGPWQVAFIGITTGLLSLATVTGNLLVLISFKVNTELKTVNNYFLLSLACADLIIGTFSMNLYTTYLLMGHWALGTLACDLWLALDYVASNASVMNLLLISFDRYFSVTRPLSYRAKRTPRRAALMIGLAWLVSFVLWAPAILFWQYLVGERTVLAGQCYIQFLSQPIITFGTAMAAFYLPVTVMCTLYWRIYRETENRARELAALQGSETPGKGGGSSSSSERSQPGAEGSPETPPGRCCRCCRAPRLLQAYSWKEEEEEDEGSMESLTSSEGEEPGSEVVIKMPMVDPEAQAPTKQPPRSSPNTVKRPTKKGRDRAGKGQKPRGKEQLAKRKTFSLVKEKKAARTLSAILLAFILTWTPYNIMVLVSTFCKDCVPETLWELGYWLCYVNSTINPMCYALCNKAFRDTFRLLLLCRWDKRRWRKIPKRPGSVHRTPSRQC


Columns and labels:
Assay in all cases: radioligand displacement, 10 uM compound
Details in all cases: remark: other sources report otherwise
[1] = target: kappa (h) (KOP) (human (printed (h))), P41145
[2] = target: mu (MOP) (h) (human), P35372
[3] = target: T1, GR (h) (human (printed (h))), P04150
[4] = substrate: N neuronal alpha 4beta 2 (h) (human (printed (h))), P43681
[5] = target: T2, delta (DOP) (h) (human), …
[6] = target: T3, D2S (h) (human (printed (h))), P14416
[7] = target: T4, alpha 1A (h) (human (printed (h))), …
[8] = target: 5-HT2A (h) (human (printed (h))), P28223
[9] = target: T5, M1 (h) (human (printed (h))), P11229

Row | % Inhibition of Specific Binding [1] | % Inhibition of Specific Binding [2] | % Inhibition of Specific Binding [3] | % Inhibition of Specific Binding [4] | % Inhibition of Specific Binding [5] | % Inhibition of Specific Binding [6] | % Inhibition of Specific Binding [7] | % Inhibition of Specific Binding [8] | % Inhibition of Specific Binding [9] | Binder
1 | 7% | 2% | -2% | -8% | 0% | 15% | 2% | -2% | 6% | Hexanoyl-CPPTQFCD-NH2 (linker 1-7 via tMeBn(DOTA-PP)) [Hex-[Cys(tMeBn(DOTA-PP))-Pro-Pro-Thr-Gln-Phe-Cys]-Asp-NH2 (3BP-3407)]
2 | 10% | -10% | 0% | -2% | 1% | -7% | -12% | 4% | 8% | Hexanoyl-CPPTQFC-OH (linker 1-7 via tMeBn(DOTA-AET)) [Hex-[Cys(tMeBn(DOTA-AET))-Pro-Pro-Thr-Gln-Phe-Cys]-OH (3BP-3554)]
